Test results from the domain aggregation screens of Martell et al. (2025).

Assay: soluble fraction after stress (log2 fold change); higher = more stays soluble; pooled small domains, quantitative proteomics
Conditions: stress: 50 degC
In short: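 Quantitative proteomics served as the high-throughput read-out for pooled custom libraries of small protein domains. Each was stressed at 50°C. Aggregation propensity is expressed as the base-two log fold change in soluble protein after stress. A higher value means a larger share of the protein remains in solution.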
With “HMGFYDLFINLADKVGSLADVTQILAEARINLVNVHILEIREEIDGIAQLTFSSEKDRQKALELLKTKYK” the “soluble fraction (log2)” value was -1.33. For “HMPQLEDLEPLDSSGMVRRDGPHLVLAVGRHRGRHLEEVRDSDPSYLHWLLSPKGIEDIQAKEDIKTYLNL”, the “soluble fraction (log2)” value was 0.0519. For “HMSNIIGNTAYSAIPDKQYFRLKSETAEKVANYLTENNIPFSGRINGDKTTLTIGQKNVDDYKAAVATVTG”, the “soluble fraction (log2)” value was 0.0593. With “HMAQSLAQKINNYILTNRSSIANVAKSIGYSRTTVSRYLAGKYDSDPTDLENKLAEFLAHETGE” the “soluble fraction (log2)” value was 0.076. In the case of “HMPTTTFENLPDAKKKTIIAALLKEFSQSPLSKAQVAPIVKESQIARGAFYKYFVDLTDAYTYLYRQ”, the “soluble fraction (log2)” value is reported as -0.204. With “HMQAPVVNHDLIKSFERQWREIKATAKGKVRSVNLSDARSILQSFLNTLQKGPGTDSLISSVQNELSLIA” the “soluble fraction (log2)” value was -0.00186. For “HMEQYYVFFAGGMTIGTKEWYESILPENIATSYDDILEGKMMPASLEQIEFYNSHKDYDLYHLFYML”, the “soluble fraction (log2)” value was -4.11. With “HMNNESEGAIMLRQYSSLSAYLTKYNIDVNSKKAQQYASSLKLAQEKGSAEGQKYLSSISSELDD” the “soluble fraction (log2)” value was -0.158. With “HMAPEVTVHDGSIVVRGHVGGVTVYDESGRQIASVQSRGAVAIPVPAGHTYLYIVKPEGKPAIKVRAAH” the “soluble fraction (log2)” value was 0.0927. In the case of “HMVGADTISDLISQRGRMIGDKPITNAVIKSGSEFSTINALSKAIASGDARTNDVEGMKPVFR”, the “soluble fraction (log2)” value is reported as -0.0638. For “HMNFMDGFQSFFQESGAMNRPMTADVVSYRLPDGTVQQGNSTMRGLMDQYLKSIGQSPTTGVP”, the “soluble fraction (log2)” value was 0.00775. For “HMKRTMVEAAMVAKLFNLTVRRIQQLTQDGVLTTELVDKKRRYDLLLTVQKYIAYLQEKVAK”, the “soluble fraction (log2)” value was -3.24. For “HMDSLARKTVNGAEFYIYPVESAEGFYSLRRKFGVSQEEVIKYNPSAQNGLKSGQVLLIPVT”, the “soluble fraction (log2)” value was -0.176. For “HMPFGIYGGKVSSLDDLKDKAAVLVPNDVSNEARALLLLEAQGLIKLKEGVGLEATRNDIVEN”, the “soluble fraction (log2)” value was at least 0.62. In the case of “HMDRRSTTLQDIYTRIDAEEISEALELIPKLGEIEFEQNRAEIAEAAGVRPAVLDKLRKQAAKQENNKK”, the “soluble fraction (log2)” value is reported as -0.0355. For “HMTTEPYILTRMPDGSIKAEPNLNYKGPEQKPGSNIQVKGADGRIYLVPIDGQGKPGKPQLVD”, the “soluble fraction (log2)” value was 0.116. In the case of “HMGFSLEQFGTDPDLKKIVENAFERIITASEGRIFKSDFSSNNSALPLEIFSFLIAVILLKLSGMN”, the “soluble fraction (log2)” value is reported as -0.142. In the case of “HMEDADERRALEVLNQLLDLPEREQEAALAALSLPPALARRVRSLLSVQTRAADLFDTAPSP”, the “soluble fraction (log2)” value is reported as -0.0946. For “HMVIANADVRAKFSKGKDSFVKYYFKEKVLKDGFTEEVKNNIVQALFYLQIVTRIDGESGVLIIDY”, the “soluble fraction (log2)” value was -0.0492. With “HMGLKDTEVYMPDVRGLIEEEAQTKLKASFLTMKVSYTSSDEVKKGYVISQAPSADSVVLKGASVTVIVS” the “soluble fraction (log2)” value was -2.07. With “HMNVDSLIGKKARVLEDIDNLNAKGQVSIDGMEWTARSEDGSEIKKDALVEVVAIEGVKAIVKQ” the “soluble fraction (log2)” value was 0.0709. For “HMTETTTVPKLKGLTKDEAEDAAKSSKIKLEFIDEISKTVEAGVIIKQEKDEGETVNAGDTVKVYVSIGT”, the “soluble fraction (log2)” value was 0.218. In the case of “HMNPASVLDGLKITSFSPTRAIVAGPGGSRIVFDNEAVVLGGIEWDVHIQRNGIEFTSQGQTVLLLFDRS”, the “soluble fraction (log2)” value is reported as -1.21. In the case of “HMITDSSEIEAMVDALVKENPGQAEQYKDGNMKVAGWFIGQIMKVSKGKANPQLVGDLLKKKLG”, the “soluble fraction (log2)” value is reported as 0.353. With “HMNGAVAEQARKQLMAALKASEFIAEEKLDEWLDALALPEDKRTAIVDAVDELDYEEAISELEN” the “soluble fraction (log2)” value was 0.0153. For “HMQKEMDIVLQINGKMRSNLKVSSTANDDEIIKTAIESDAYKKFSLGLRIQKTIIVPNRLINIVLEK”, the “soluble fraction (log2)” value was -0.985. With “HMETGEDSLRRYFNSLPGSASKREILEDNPTVSQRTTERILQKLQAEGFIEKVGAARATRYRKVKQ” the “soluble fraction (log2)” value was 0.209. For “HMERPEVVAYRLAYASAESLRPALGLVASPSDLEIDERTNTLIVRAVPSVQERVAELVASLDI”, the “soluble fraction (log2)” value was -0.237. With “HMHLKDEHGLTPKQRAFADEYVITLNATVSYKKIYSVKRDSVASTNGSRLLGNANVKAYIDKRLEE” the “soluble fraction (log2)” value was -2.19. With “HMLTKSELVFDTLKKRIIDGELEPGTELVISRISEEFNVSTIPVREAIKTLASEGLVEMEPHKSAKVAE” the “soluble fraction (log2)” value was -0.0631. With “HMILNDRSELLDVVKRVIAANPASVADYRKGKKKVLGFLVGQAMKETKGQADPRILNELFLQELGEN” the “soluble fraction (log2)” value was 0.0223. In the case of “HMKTKTIMSTGAREDLVKMINEYYYSKNYIITEDNRIYNTKTEKFMDDLSVKFYRGRWKVIRN”, the “soluble fraction (log2)” value is reported as -0.813. With “HMSIPVLKDGTYESWGNEKVYKVGDRVMVGSNGYVAKWWNQDETPEKAIINPNDSPWRPMTESEIMEVLK” the “soluble fraction (log2)” value was -0.0154. In the case of “HMAQSEDLMVMAQRILGGPEAQSFFQAEATRQGLAGFLPEPIPDFLQRLERKLSGSVGSATAHAMVAQTMG”, the “soluble fraction (log2)” value is reported as -0.179. With “HMATIIGSIGIVTQKVGLTGVPGRVYVNNESWAAISANGKEIENDTQVIVVKIDGATLIIEKKG” the “soluble fraction (log2)” value was -1.47. With “HMDFSERLARAMSLAGYTQGRLAKEVGMAQSSVNKLLNGANGSRKTVEIASVLGVRPEWLSTGAGEML” the “soluble fraction (log2)” value was -0.371. For “HMSRGTRIDPNWQPSPEDRALARAEGFSDPEIDREALQFRDYWLGASGSNAVKLDWSATWRNWVRRAATNF”, the “soluble fraction (log2)” value was 0.0774. With “HMTTKYMVLVNWVKEKVRTNELKTGEKLYSEHEFSRMFHMSRQTVRHGISILERENIVERRQGSGTFIKDA” the “soluble fraction (log2)” value was -3.06.
